What was measured:
[1] = biological target: type-I GnRH binding site in the pituitary of adult male land-locked P. marinus (P. marinus (sea lamprey)); assay: competition with iodinated [DAla6,Pro9Net]-mammalian GnRH tracer, pituitary of adult male P. marinus; Ki from IC50
[2] = biological target: type-II GnRH binding site in the pituitary of adult male land-locked P. marinus (P. marinus (sea lamprey)); assay: as above
[3] = biological target: type-I GnRH binding site in the pituitary of adult male land-locked P. marinus (P. marinus (sea lamprey)); assay: self-displacement of iodinated [DAla6,Pro9Net]-mammalian GnRH tracer, pituitary of adult male P. marinus; Ki from IC50
[4] = biological target: type-II GnRH binding site in the pituitary of adult male land-locked P. marinus (P. marinus (sea lamprey)); assay: as above

Row | Substance | Ki [1] [nM] | Ki [2] [nM] | Ki [3] [nM] | Ki [4] [nM]
1 | [Ac-Delta-3Pro, 4FDPhe^2-D-Trp^3,6]-lGnRH-III (peptide) | 7.1 | 8940 | – | –
2 | [D-Phe^2,6, Pro^3]-lGnRH-III (peptide) | 0.03 | 52200 | – | –
3 | [D-Phe^2, Gly^6]-lGnRH-I (peptide) | 1.37 | 5650 | – | –
4 | [D-Phe^2, Gly^6]-lGnRH-III (peptide) | 0.00383 | 655 | – | –
5 | [DAla^6, Pro^9Net]-mammalian GnRH (peptide) | – | – | 0.00311 | 89

— patent US20030236184A1
